{
  "source": "paper PMC7530888",
  "molecular_target": "GST-tagged MtbXthA (M. tuberculosis class II AP-endonuclease/3'-5' exonuclease XthA) (M. tuberculosis) (UniProt P96273)",
  "experiment": "SPR",
  "data": [
    {"substance": "BRCT domain of MtbLigA, His-tagged (from UniProt P9WNV1 1-691) (domain or fragment)", "values": [
      {"measurement": "Kd", "result": 67.7, "unit": "nM"}
    ]}
  ]
}
